Key:
beta-catenin = test: Beta-catenin protein level by Western Blot; assay type: cell-based, human; conditions: 10 mcg/ml, 24, 48, 72 hr
Method: Cancer cells, A549 and Sw480, were cultured to about 85% confluency and put into 6 well plates. […] After treatment, the cells were harvested for Western Blot to detect the beta-catenin protein level, using its specific antibody, with GAPDH as endogenous loading control. The experiment was conducted in triplicate.
To determine the expression of various proteins, cells were harvested from the plates and total cellular protein were extracted using extraction reagents (Cat #: P0013) according to the manufacturer's protocol (Beyotime, China). The total protein concentration was determined by the Lowry Protein Assay kit (Bio-Rad, USA). […] The membranes were blocked with 5% skimmed milk, bovine serum albumin, 10 mmol/L Tris-HCl at pH 8.0, 150 mmol/L NaCl, and 0.05% Tween 20 overnight at 4° C. The blocked membranes were then incubated with primary antibodies (1:1000 dilutions), followed by secondary HRP-conjugated antibodies. Blots were visualized using Luminescence/Fluorescence Imaging LAS4000 System (GE Healthcare Life Sciences, USA) with super signal west pico chemiluminescent substrate kit (Thermo scientific, USA).
For this determination, the primary antibodies used were mouse monoclonal anti-beta-catenin antibodies (1:1000; Santa Cruz Technology, Santa Cruz, Calif.) and mouse monoclonal anti-GAPDH antibodies (1:2000) (Kangwei Biotechnology, China). […]

A549 tumor cells = test: Cell viability, MTT assay, 1-6 days; assay type: cell-based, human; conditions: 10 μg/ml
Method: The cell survival rate was evaluated in a standard MTT assay [3-(4,5-dimethylthiazol-2-yl)-2,5-diphenyltetrazolium bromide assay, Sigma, St. Louis, Mo.). For the assay, about 20 μl MTT (at 4 mg/ml) was added to each well. The cells were incubated at 37° C. for 4 hr. After that, the supernatant of each well was drawn off carefully and then an equal volume (150 microliter) of dimethyl sulfoxide (DMSO) was added to each well and mixed thoroughly on a shaker for 15 min. The absorbance from the plates was read at 595 nm with a Thermo Scientific Microplate Reader (Thermo Fisher Scientific Inc., Lowell, Mass.). The relative cell viability was calculated as follows: Cell viability=(Treated group(OD595) minus blank(OD595))/(Control group(OD595) minus blank(OD595))×100%.

KLF4 = test: qPCR of tumor suppressor gene; assay type: cell-based, human; conditions: 10 mcg/ml, 24 hr
Description: (§1) After 24 hr of treatment, total cellular mRNA was isolated using TRIZOL Reagent, and cDNA was synthesized, and further subjected to qPRC using specific primers for DKK3, KLF4 and BATF2. The following primers were used: for BATF2, sense primers: 5′-[…]-3′ (SEQ ID NO: 16) and antisense primers: 5′-[…]-3′ (SEQ ID NO: 17); for DKK3, sense primers: 5′-[…]-3′(SEQ ID NO: 18) and antisense primers: 5′-[…]-3′ (SEQ ID NO: 19); for KLF4, sense primers: 5′-[…]-3′ (SEQ ID NO: 20) and antisense primers: 5′-[…]-3′ (SEQ ID NO: 21).
(§2) The experiment was conducted in triplicate and normalized with the mock control group. Results, shown in FIG. 12, were expressed as relative mRNA expression level in relation to that of GAPDH.

BATF2 = test: qPCR of tumor suppressor gene; assay type: cell-based, human; conditions: A549 cells, 10 mcg/ml, 24 hr
Description: as §1, §2

[1] = test system: STAT1 (Tyr701), STAT2 (Tyr690), STAT3(Tyr705); test: STAT phosphorylation by Western Blot; assay type: cell-based, human; conditions: A549 cells and Hela cells, 10 μg/ml, 0-240 minutes
Description: After treatment, the cells were collected, cellular proteins were extracted and loaded onto SDS-PAGE […] for Western Blot analysis to observe the phosphorylation of STAT1 (Tyr701), STAT2 (Tyr690), and STAT3(Tyr705). GAPDH was used as a loading control.
The primary antibodies used were: STAT1 (1:1000, Cat #: 9175S), Tyr701 phosphorylated-STAT1 (1:1000, Cat #: 9167S), STAT2 (1:500, Cat #4594), Tyr690 phosphorylated-STAT2 (1:1000, Cat #: 441S), STAT3 (1:1000, Cat #: 9132), Tyr705 phosphorylated-STAT3 (1:1000, Cat #: 9145S). Anti-mouse (Cat #:sc-2005) or rabbit (Cat #: sc-2004) or goat (Cat #: sc-2020) HRP-conjugated secondary antibodies (Santa Cruz Technology, Santa Cruz, Calif.) were used at concentrations of 1:2000. Blots were visualized by use of Luminescence/Fluorescence Imaging LAS4000 System (GE Healthcare Life Sciences, USA) with super signal west pico chemiluminescnet substrate kit (Thermo Scientific, USA).

[2] = test system: Human Cervical Cancer Hela Xenografts; test: rSIFN-co on human cervical cancer Hela xenografts in nude mice; assay type: in vivo; conditions: for TV(mm^3, mean ± SD) (D 0): day 0; for % Inhibition / T/C (%) / TV(mm^3, mean ± SD) (D 28): day 28
Method: Then 1.5 mm^3 fragments were prepared for s.c. implantation into the animals.

DKK-3 = test: qPCR of tumor suppressor gene; assay type: cell-based, human; conditions: A549 cells, 10 mcg/ml, 24 hr
[3] = 0.05 mg/mouse i.t. every other day
[4] = 0.10 mg/mouse i.t. every other day
[5] = 0.15 mg/mouse i.t. every other day

B1: rSIFN-co: Recombinant super-compound interferon; amino acid sequence SEQ ID NO: 1 (same as INFERGEN), encoded by novel nucleotide sequence SEQ ID NO: 2 (protein)
chain: MCDLPQTHSLGNRRALILLAQMRRISPFSCLKDRHDFGFPQEEFDGNQFQKAQAISVLHEMIQQTFNLFSTKDSSAAWDESLLEKFYTELYQQLNDLEACVIQEVGVEETPLMNVDSILAVKKYFQRITLYLTEKKYSPCAWEVVRAEIMRSFSLSTNLQERLRRKE
modifications: Amino acid sequence of recombinant interferon
Q: How did the beta-catenin protein level (beta-catenin; A549 cells) turn out when B1 was run?
A: Its beta-catenin protein level is “dramatically decreased beta-catenin protein level after treatment for 2 days (48 hr)”.

Q: And the beta-catenin protein level (beta-catenin; SW480 cells)?
A: The beta-catenin protein level was “obvious after 72 hours of treatment”.

Q: What about the “cell viability over time (MTT)” value (A549 tumor cells) of the same molecule?
A: The value was “also apparent for A549 cells for only about the first 3 days of treatment”.

Q: And the “relative mRNA expression level of KLF4” value (KLF4; A549 cells)?
A: Its value is “dramatically increased”.

Q: And the “relative mRNA expression level of KLF4” value (KLF4; SW620 cells)?
A: The value was “dramatically increased as compared to control and IFN alpha-2b treatment”.

Q: And the “relative mRNA expression level of BATF2” value (BATF2)?
A: Its value is “dramatically increased”.

Q: And the “phosphorylation patterns for STAT1, STAT2 and STAT3 (JAK/STATs signaling level)” value [1]?
A: Its value is “no different from that mediated by IFN alpha-2b”.

Q: What about the “TV(mm^3, mean ± SD) (D 0)” value [2, 3] of the same molecule?
A: Its value is 135 ± 26 mm^3.

Q: What about the “% Inhibition” value [2, 3] of the same molecule?
A: Its value is 46.67%.

Q: What about the “T/C (%)” value [2, 3] of the same molecule?
A: The value was 53.33%.

Q: And the “TV(mm^3, mean ± SD) (D 28)” value [2, 3]?
A: The value was 886 ± 232 mm^3.

Q: And the “TV(mm^3, mean ± SD) (D 0)” value [2, 4]?
A: The value was 135 ± 28 mm^3.

Q: And the “% Inhibition” value [2, 4]?
A: Its value is 46.67%.

Q: What about the “T/C (%)” value [2, 4] of the same molecule?
A: The value was 53.33%.

Q: And the “TV(mm^3, mean ± SD) (D 28)” value [2, 4]?
A: The value was 865 ± 186 mm^3.

Q: And the “TV(mm^3, mean ± SD) (D 0)” value [2, 5]?
A: Its value is 136 ± 25 mm^3.

Q: What about the “% Inhibition” value [2, 5] of the same molecule?
A: Its value is 40.40%.

Q: What about the “T/C (%)” value [2, 5] of the same molecule?
A: The value was 59.60%.

Q: And the “TV(mm^3, mean ± SD) (D 28)” value [2, 5]?
A: The value was 1025 ± 400 mm^3.

Q: And the “tolerability, signs of toxicity” value ([2]; 0.05-0.15 mg/mouse i.t. every other day, 28 days)?
A: Its value is “tolerated the rSIFN-co treatments with no signs of toxicity”.

Q: What about the “change in average body weight” value ([2]; 28-day treatment period) of the same molecule?
A: The value was “Very little change in average body weight”.

Q: What about the “relative mRNA expression level of DKK-3” value (DKK-3) of the same molecule?
A: The value was “dramatically increased”.
